The source of these data is US20140315251A1.

Positions count from the first letter of the chain named.

B1: Caninized 11E12 (antibody, V domains shown)
VH: EVQLVQSGAEVKKPGASVKVSCKTSGYTFKYYDINWVRQAPGAGLDWMGWIFPGDGGTKYNETFKGRVTLTADTSTSTAYMELSSLRAGDIAVYYCARGGTSVIRDAMDYWGQGTLVTVSS
VL: DIVMTQTPLSLSVSPGEPASISCRASESVDNYGISFMHWFQQKPGQSPQRLIYRASNLESGVPDRFSGSGSGTDFTLRISRVEADDAGVYYCQQSNKDPLTFGAGTKLEIKR
B2: Mouse 34D03 (antibody, V domains shown)
VH: EVQLVESGGDLVKPGGSLKLSCAASGFSFSNYGMSWVRQTPDKRLEWVATISYGGSYTYYPDNIKGRFTISRDNAKNTLYLQMSSLKSEDTAMYYCVRGYGYDTMDYWGQGTSVTVSS
VL: DILLTQSPASLAVSLGQRAIISCKASQSVSFAGTGLMHWYQQKPGQQPKLLIYRASNLEAGVPTRFSGSGSRTDFTLNIHPVEEEDAATYFCQQSREYPWTFGGGTKLEIK
B3: Chimeric 34D03 (antibody, V domains shown)
VH: B2 VH
VL: DILLTQSPASLAVSLGQRAIISCKASQSVSFAGTGLMHWYQQKPGQQPKLLIYRASNLEAGVPTRFSGSGSRTDFTLNIHPVEEEDAATYFCQQSREYPWTFGGGTKLEIKR
B4: Mouse 11E12 (antibody, V domains shown)
VH: QVQLQQSGAELVKPGASVKLSCKASGYTFKYYDINWVRQRPEQGLEWIGWIFPGDGGTKYNETFKGKATLTTDKSSSTAYMQLSRLTSEDSAVYFCARGGTSVIRDAMDYWGQGTSVTVSS
VL: DIVLTQSPASLAVSLGQRATISCRASESVDNYGISFMHWYQQKPGQPPKLLIYRASNLESGIPARFSGSGSRTDFTLTINPVETDDVATYYCQQSNKDPLTFGAGTKLELK
B5: Chimeric 11E12 (antibody, V domains shown)
VH: B4 VH
VL: DIVLTQSPASLAVSLGQRATISCRASESVDNYGISFMHWYQQKPGQPPKLLIYRASNLESGIPARFSGSGSRTDFTLTINPVETDDVATYYCQQSNKDPLTFGAGTKLELKR
B6: Caninized 19D07 (antibody, V domains shown)
VH: EVQLVESGGDLVKPGGSLRLSCVASGFTFSSYDMSWVRQAPGKGLQWVATITSGGGYTYSADSVKGRFTISRDNARNTLYLQMNSLRSEDTAVYYCARQNWVVGLAYWGQGTLVTVSS
VL: EIVMTQSPASLSLSQEEKVTITCKSSQSLLNSGNQKNYLAWYQQKPGQAPKLLIYGASTRESGVPSRFSGSGSGTDFSFTISSLEPEDVAVYYCQNDYSYPYTFGQGTKLEIKR
B7: Mouse 19D07 (antibody, V domains shown)
VH: EVKLVESGGGLVKPGGSLKLSCAASGFAFSSYDMSWVRQIPEKRLEWVATITSGGGYTYSADSVKGRFTISRDNARNTLYLQMSSLRSEDTAVYYCARQNWVVGLAYWGQGTLVTVSA
VL: DIVMSQSPSSLSVSAGDKVTMSCKSSQSLLNSGNQKNYLAWYQQKPWQPPKLLIYGASTRESGVPDRFTGSGSGTDFTLTISSVQAEDLAVYYCQNDYSYPYTFGGGTKLEIK
B8: Chimeric 19D07 (antibody, V domains shown)
VH: B7 VH
VL: DIVMSQSPSSLSVSAGDKVTMSCKSSQSLLNSGNQKNYLAWYQQKPWQPPKLLIYGASTRESGVPDRFTGSGSGTDFTLTISSVQAEDLAVYYCQNDYSYPYTFGGGTKLEIKR
B9: Caninized 34D03 (antibody, V domains shown)
VH: EVQLVESGGDLVKPGGSLRLSCVASGFTFSNYGMSWVRQAPGKGLQWVATISYGGSYTYYPDNIKGRFTISRDNAKNTLYLQMNSLRAEDTAMYYCVRGYGYDTMDYWGQGTLVTVSS
VL: EIVMTQSPASLSLSQEEKVTITCKASQSVSFAGTGLMHWYQQKPGQAPKLLIYRASNLEAGVPSRFSGSGSGTDFSFTISSLEPEDVAVYYCQQSREYPWTFGQGTKLEIKR
B10: 11E12 Heterochimera (antibody, V domains shown)
VH: B1 VH
VL: B5 VL
B11: Caninized 11E12 FW2 (antibody, V domains shown)
VH: B1 VH
VL: B1 VL with F40Y, S47P, Q49K, R50L
B12: Caninized 11E12 13 (antibody, V domains shown)
VH: B1 VH
VL: B1 VL with R50L
B13: Felinized 34D03 (antibody, V domains shown)
VH: B9 VH with E1D, S21T, F29Y, R87K, A88T, M93T
VL: EIQMTQSPSSLSASPGDRVTITCKASQSVSFAGTGLMHWYQQKPGKVPKLLIYRASNLEAGVPSRFSGSGSGTDFTLTISSLEPEDAATYYCQQSREYPWTFGQGTKLEIKR

Chain of Recombinant canine IL-31 produced in CHO cells (canine) (chain, as listed by the source limits assumed, form in doubt): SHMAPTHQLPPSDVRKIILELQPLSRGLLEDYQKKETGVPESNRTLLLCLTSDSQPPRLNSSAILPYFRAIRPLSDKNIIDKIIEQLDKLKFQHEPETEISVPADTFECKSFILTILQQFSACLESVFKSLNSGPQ

One assay concerns the target Recombinant canine IL-31 produced in CHO cells (canine). In words: SPR (Biacore), IL-31 amine-coupled to the chip, mAb in solution, 1:1 fit; Biacore affinity (SPR); weak, about 0.5 uM; not active in the DH82 pSTAT assay. (In general: SPR reads the build-up and loss of mass on a sensor chip optically.)
Broadly, the Kd is the free concentration of one partner at which half of the binding sites on the other are occupied at equilibrium, for simple one-to-one binding. As for B1, the Kd is 506000 pM.

Another assay has the same target. The experiment in a line: SPR (Biacore), IL-31 amine-coupled to the chip, mAb in solution, 1:1 fit.
With B2, the Kd turned out to be 1.01 pM.
Still for that read-out and setting: the same measure for B3: 4.65 pM.
Same read-out and setting: the same measure for B4: 0.893 pM; for B5: 0.268 pM; for B6: 923 pM.
Consider B7, for which the Kd was 7.24 pM.
Same read-out and setting: the same measure for B8: 0.515 pM.
Regarding B9, the Kd was 29.1 pM.
On to B10, for which the Kd turned out to be 4.97 pM.
B11: the Kd turned out to be 147 pM.
The same measure, in the same setting: the same measure for B12: 5.16 pM.

The target is the same in a further assay.
Assay: not given
With B9, the IC50 (inhibition of canine IL-31 induced pSTAT signaling in canine DH82 monocytes) was 2.29 µg/mL.
Same read-out and setting: the result for B13 reads 2.41 µg/mL.

For a further assay the target is unchanged. In words: cell-based or functional assay.
For the molecule B2, the DH82 pSTAT Assay, Co-incubation IC50 came to 1.73 µg/ml and the DH82 pSTAT Assay, Pre-treatment IC50 is 2.28 µg/ml.
B3: the DH82 pSTAT Assay, Co-incubation IC50 came to 1.28 µg/ml and the DH82 pSTAT Assay, Pre-treatment IC50 is 1.08 µg/ml.
In the same order, the values of B4 are 1.61 µg/ml and 2.28 µg/ml.
In the same order, the values of B5 are 1.48 µg/ml and 1.57 µg/ml.
Taken in the same sequence, the figures for B7 were 1.76 µg/ml and 3.46 µg/ml.
Turning to B8, the DH82 pSTAT Assay, Co-incubation IC50 is 1.92 µg/ml and the DH82 pSTAT Assay, Pre-treatment IC50 turned out to be 1.33 µg/ml.
Taken in the same sequence, the figures for B9 were 2.42 µg/ml and 2.25 µg/ml.
Taken in the same sequence, the figures for B10 were 2.67 µg/ml and 3.35 µg/ml.
On to B11, for which the DH82 pSTAT Assay, Co-incubation IC50 was determined as 2.7 µg/ml and the DH82 pSTAT Assay, Pre-treatment IC50 was determined as 5.31 µg/ml.
As to B12, the DH82 pSTAT Assay, Co-incubation IC50 came to 5.49 µg/ml and the DH82 pSTAT Assay, Pre-treatment IC50 came out at 5.18 µg/ml.
